Results as given in patent US20200230115A1, “METHODS OF TREATING INFLUENZA-ASSOCIATED VIRAL PNEUMONIA” (priority 2017, published 2020).
Like-named read-outs stand apart in the source and are kept apart here.

Legend:
[1] = test system: cytokines and chemokines; experiment: Multiplex analysis of inflammatory mediators in BALF and serum; assay type: in vivo, DBA/2J mice
[2] = test system: IL-6, TNFα, KC, MCP-1; assay type: in vivo
[3] = test system: AECII; experiment: Flow cytometry of dispersed lung cells (pro SP-C, Ki67, IAV-NP) after in vivo treatment; parameters: species or system DBA/2J mice
[4] = test system: AECII; assay type: cell-based, mice

B1: KGF: keratinocyte growth factor, a potent pulmonary epithelial mitogen; cognate receptor FGFR2 (protein, UniProt P21781 32-194, looked up)
Fibroblast growth factor 7: CNDMTPEQMATNVNCSSPERHTRSYDYMEGGDIRVRRLFCRTQWYLRIDKRGKVKGTQEMKNNYNIMEIRTVAVGIVAIKGVESEFYLAMNKEGKLYAKKECNEDCNFKELILENHYNTYASAKWTHNGGEMFVALNQKGIPVRGKKTKKEQKTAHFLPMAIT
Question: Which results are given for B1?
Answer: BAL IP10, MCP-5, TNFα, MIG, IL-6, MCP-1, G-CSF, M-CSF, IFNγ responses relative to PBS/IAV ([1]; BALF, 72 h after IAV with 5 mg/kg KGF i.t.): modestly augmented; serum inflammatory response to IAV (especially IP10, TNFα, MCP-1, IFNγ) ([1]; serum, IAV with 5 mg/kg KGF i.t.): augmented the inflammatory response; TNFα increase, KGF alone vs naive controls ([2]; KGF treatment alone, 48 and 72 h postchallenge): two- to threefold increases; cytokine responses, KGF alone (other than TNFα) ([2]; KGF treatment alone, no IAV, any point): no effect; enhancement of IAV-induced IL-6, TNFα, KC, MCP-1 levels ([2]; whole-lung homogenates, 48 and 72 h, KGF coadministration with IAV): 10-50%; fold increase in percentage of AECII proliferating vs PBS ([3]; 48 h after i.t. KGF 5 mg/kg): more than sevenfold; percentage of AECII proliferating based on Ki67 staining ([3]; 48 h after i.t. KGF 5 mg/kg, PBS-only mice 2%): 14%; percentage of AECII infected (IAV-NP), time course ([3]; KGF 24, 48 or 120 h before 50,000 particles i.t. IAV, peak): peaked in dispersed lung cells from mice that had been pretreated with KGF 48 h before infection; mean channel fluorescence of IAV-NP (viral burden per cell), time course ([3]; KGF 24, 48 or 120 h before IAV, peak): peaking in cells harvested at 48 h after KGF; percentage of AECII infected (IAV-NP) ([3]; KGF 120 h before inoculum): remained near PBS control levels; mean channel fluorescence of IAV-NP (viral burden per cell) ([3]; mouse, in vivo): remaining close to PBS control levels; percentage of AECII infected vs PBS control mice ([3]; mouse, in vivo): significantly greater; percentage of AECII proliferating (Ki67) ([3]; mouse, in vivo): remaining similar to PBS control levels; percentage of AECII proliferating (Ki67), time course ([3]; mouse, in vivo): peaking in cells isolated from mice that had been dosed with KGF 48 h before PBS challenge; MCF per cell for IAV-NP [4]: returning to baseline; mean fluorescence intensity of IAV-NP staining, Ki67 high vs Ki67 low [4]: greater in the Ki67 high (proliferating) than the Ki67 low (nonproliferating) population; peak in expression of viral protein M1 (Western blot) [4]: occurred in AECII that were isolated 48 h after in vivo KGF challenge; percentage of AECII infected after ex vivo IAV incubation [4]: remained near baseline levels; percentage of AECII infected after ex vivo IAV incubation, time course [4]: highest in cells harvested 48 h after in vivo KGF treatment; percentage of AECII proliferating (Ki67) [4]: returned to near baseline; percentage of AECII proliferating (Ki67), time course [4]: peaked at 48 h; MCF per cell for IAV-NP, time course ([4]; ex vivo IAV 18 h, peak): peaking in cells harvested at 48 h post KGF
